Measurements from US20260158070A1, “COMPOSITIONS AND METHODS FOR THE TREATMENT AND DIAGNOSIS OF CANCERS ASSOCIATED WITH SURFACE K-RAS” (UNIVERSITY OF MARYLAND, BALTIMORE, priority 2023, published 2026).

B1: M11.1.2: a scaffolding protein that binds mouse serum albumin (SEQ ID NO: 7) (protein)
chain: ATVKYTYRGEEKRVDISKIKWVNRWGQHLAFKYDKGGGAAGYGWVSEKDAPKELLQMLEKR
B2: mutated form of R11.1.6: R11.1.6 with codons in the regions that contact the K-RAS mutant scrambled to prevent binding (SEQ ID NO: 6) (protein)
chain: ATVKFTHQGEEKQVDISKIKFVWRKGYVRIWGYDEDGGWGAGKYVSEKDAPKELLQMLKKR
B3: E11.4.1: scaffold protein which binds human EGFR (SEQ ID NO: 8) (protein)
chain: ATVKFTYQGEEKQVDISKIMYVIRGGQRIAFGYDEGDGAWGDGIVSEKDAPKELLQMLEKQ

How the values were obtained:
[1] = test system: Panc-1 (K-Ras G12D mutant); test: Growth and viability of pancreatic cancer cells cultured with R11.1.6 constructs (cell count, Trypan blue); format: cell-based, human; conditions: Panc-1, 20,000 cells/well, counted after 5 days of culture
Description: We next evaluated growth as well as viability of two pancreatic cancer cell lines driven by either G12D (Panc-1) or G12C (MiaPaca-2) mutant K-Ras in vitro. We plated 20,000 cells/well in Dulbecco's modified Eagles media (DMEM) with 10% fetal bovine serum (FBS) in a flat bottom 96 well plate and counted cells after 5 days of culture. Viability of cells were calculated based on Trypan blue dye exclusion method, where dead cells were blue due to uptake of the viability dye and live cells were not stained. Viability was measured by using Countess II FL cell viability and cell counter instrument by Invitrogen (ThermoFisher USA).
Further evaluation of growth inhibition was performed with control Sulfolobus solfataricus-derived proteins of similar molecular weight. […] We started with 200,000 cells in a 96 well V-bottom plate and used BD phosflow buffer set III (BD biosciences, catalog number 558050) to stabilize and optimize the phosphor moiety. Next, we stained the cells with anti-phospho-Akt (ser473, Clone D9E) PE conjugated (Cell Signaling Technologies, Catalog number 5315S) at a concentration of 0.125 ug/100 ul or anti-phosho-ERK1/2, PE conjugated (ThermoFisher USA catalog number 12-9109-42) at a concentration of 0.125 ug/100 ul. Cells were washed in FACS staining buffer and run in a LSR Fortessa II flow cytometer (BD Biosciences, USA). Acquisition was done was using FACS DIVA software (BD Biosciences) and analysis was performed in FlowJo software (Tree Star, OR, USA). This was a significant finding as both Akt and ERK1/2 are important downstream molecules of K-Ras signaling, like that described for small molecule inhibitors of K-Ras (PMID: 12509763) (FIG. 1g).

[2] = test system: Panc-1 (G12D mutant K-Ras); test: Localization / surface binding of His-tagged constructs by anti-His flow cytometry and confocal microscopy; format: cell-based, human
Text: However, we considered that the small 7 kDa size of this scaffolding protein and disorganized cell membrane of malignantly transformed cells may allow for cytoplasmic penetration even in the absence of a cell penetrating peptide. To evaluate this possibility, we explored the cellular location of the R11.1.6 constructs by flow cytometry and confocal microscopy. For flow cytometry experiments, cells were stained first with Live/Dead far red fixable staining kit (ThermoFisher USA, catalog number L10120). Specifically, 0.2-0.4×10^6 cells were plated in a V bottom plate and 100 ul of the dye (1:1000 dilution of stock concentration following manufacturer's protocol) was added to each well and cells incubated in room temperature for 15 mins. Next cells were washed with PBS containing 2.5% FBS and 0.1% sodium azide (FACS buffer). Cells were then surface stained by adding 100 ul/well of anti-His PE labelled antibody (mouse anti-human antibody, BioLegend, CA, USA Catalog #362603) at a concentration of 10 μg/ml. Cells were washed twice with FACS buffer and fixed by cytofix buffer (BD biosciences catalog number 554655). […] Cells were acquired using LSR Fortessa II flow cytometer using FACS DIVA software (BD Biosciences USA) and analyzed using FlowJo (Tree Star USA). […]

Molecule | growth and viability [1] | binding to the tumor cell surface (anti-His staining) [2]
B1 | none of these control constructs could inhibit tumor growth | 
B2 | none of these control constructs could inhibit tumor growth | 
B3 | none of these control constructs could inhibit tumor growth | bind to the surface of tumor cells
